# US20240117018A1
# Columns and labels:
# Test in all cases: cell-based or functional assay
# [1] = target: HIV-1 Env of pseudovirus T257-31 (HIV-1)
# [2] = target: HIV-1 Env of pseudovirus 9004SS_A3_4 (HIV-1)
# [3] = target: HIV-1 Env of pseudovirus 928-28 (HIV-1)
# [4] = target: HIV-1 Env of pseudovirus 191084 B7-19 (HIV-1)
# [5] = target: HIV-1 Env of pseudovirus 191955_A11 (HIV-1)
# [6] = target: HIV-1 Env of pseudovirus 3817.v2.c59 (HIV-1)
# [7] = target: HIV-1 Env of pseudovirus 3103.v3.c10 (HIV-1)
# [8] = target: HIV-1 Env of pseudovirus 3016.v5.c45 (HIV-1)
# [9] = target: HIV-1 Env of pseudovirus 3301.v1.c24 (HIV-1)
# [10] = target: HIV-1 Env of pseudovirus 6811.v7.c18 (HIV-1)
# [11] = target: HIV-1 Env of pseudovirus T251-18 (HIV-1)
# [12] = target: HIV-1 Env of pseudovirus BJOX015000.11.5 (HIV-1)
# [13] = target: HIV-1 Env of pseudovirus 6545.v4.c1 (HIV-1)
# [14] = target: HIV-1 Env of pseudovirus 231965.c01 (HIV-1)
# [15] = target: HIV-1 Env of pseudovirus 235-47 (HIV-1)
# [16] = target: HIV-1 Env of pseudovirus BJOX028000.10.3 (HIV-1)
# [17] = target: HIV-1 Env of pseudovirus 6041.v3.c23 (HIV-1)
# [18] = target: HIV-1 Env of pseudovirus C1080.c03 (HIV-1)
# [19] = target: HIV-1 Env of pseudovirus BJOX009000.02.4 (HIV-1)
# [20] = target: HIV-1 Env of pseudovirus 6540.v4.c1 (HIV-1)
# [21] = target: HIV-1 Env of pseudovirus X1193_c1 (HIV-1)
# [22] = target: HIV-1 Env of pseudovirus T255-34 (HIV-1)
# [23] = target: HIV-1 Env of pseudovirus 231966.c02 (HIV-1)
# [24] = target: HIV-1 Env of pseudovirus C4118.c09 (HIV-1)
# [25] = target: HIV-1 Env of pseudovirus 89-F1_2_25 (HIV-1)
# [26] = target: HIV-1 Env of pseudovirus C3347.c11 (HIV-1)
# [27] = target: HIV-1 Env of pseudovirus BJOX025000.01.1 (HIV-1)
# [28] = target: HIV-1 Env of pseudovirus 211-9 (HIV-1)
# [29] = target: HIV-1 Env of pseudovirus R1166.c01 (HIV-1)
# [30] = target: HIV-1 Env of pseudovirus 6480.v4.c25 (HIV-1)
# [31] = target: HIV-1 Env of pseudovirus X2131_C1_B5 (HIV-1)
# [32] = target: HIV-1 Env of pseudovirus X1632_S2_B10 (HIV-1)
# [33] = target: HIV-1 Env of pseudovirus R2184.c04 (HIV-1)
# [34] = target: HIV-1 Env of pseudovirus P1981_C5_3 (HIV-1)
# [35] = target: HIV-1 Env of pseudovirus 6952.v1.c20 (HIV-1)
# [36] = target: HIV-1 Env of pseudovirus 620345.c01 (HIV-1)
substance,measurement,setting,value
3BNC117 (antibody),IC50,[1],0.06 µg/mL
same,IC80,[1],0.37 µg/mL
same,IC50,[2],0.07 µg/mL
same,IC80,[2],0.18 µg/mL
same,IC50,[3],0.15 µg/mL
same,IC80,[3],0.55 µg/mL
same,IC50,[4],0.07 µg/mL
same,IC80,[4],0.23 µg/mL
same,IC50,[5],> 50 µg/mL
same,IC80,[5],> 50 µg/mL
8ANC195 (antibody),IC50,[1],0.32 µg/mL
same,IC80,[1],3.89 µg/mL
same,IC50,[2],0.17 µg/mL
same,IC80,[2],0.81 µg/mL
same,IC50,[3],> 50 µg/mL
same,IC80,[3],> 50 µg/mL
same,IC50,[4],> 50 µg/mL
same,IC80,[4],> 50 µg/mL
same,IC50,[5],> 50 µg/mL
same,IC80,[5],> 50 µg/mL
10-1074 (antibody),IC50 neutralization (TZM.bl),[6],3.15 µg/mL
same,IC80 neutralization (TZM.bl),[6],14.9 µg/mL
same,IC50 neutralization (TZM.bl),[7],0.037 µg/mL
same,IC80 neutralization (TZM.bl),[7],0.101 µg/mL
same,IC50 neutralization (TZM.bl),[8],> 50 µg/mL
same,IC80 neutralization (TZM.bl),[8],> 50 µg/mL
same,IC50 neutralization (TZM.bl),[9],0.013 µg/mL
same,IC80 neutralization (TZM.bl),[9],0.042 µg/mL
same,IC50 neutralization (TZM.bl),[10],0.002 µg/mL
same,IC80 neutralization (TZM.bl),[10],0.01 µg/mL
same,IC50 neutralization (TZM.bl),[11],1.08 µg/mL
same,IC80 neutralization (TZM.bl),[11],7.39 µg/mL
same,IC50 neutralization (TZM.bl),[12],> 50 µg/mL
same,IC80 neutralization (TZM.bl),[12],> 50 µg/mL
same,IC50 neutralization (TZM.bl),[13],> 50 µg/mL
same,IC80 neutralization (TZM.bl),[13],> 50 µg/mL
same,IC50 neutralization (TZM.bl),[14],> 50 µg/mL
same,IC80 neutralization (TZM.bl),[14],> 50 µg/mL
same,IC50 neutralization (TZM.bl),[15],0.05 µg/mL
same,IC80 neutralization (TZM.bl),[15],0.163 µg/mL
same,IC50 neutralization (TZM.bl),[16],> 50 µg/mL
same,IC80 neutralization (TZM.bl),[16],> 50 µg/mL
same,IC50 neutralization (TZM.bl),[17],> 50 µg/mL
same,IC80 neutralization (TZM.bl),[17],> 50 µg/mL
same,IC50 neutralization (TZM.bl),[18],> 50 µg/mL
same,IC80 neutralization (TZM.bl),[18],> 50 µg/mL
same,IC50 neutralization (TZM.bl),[19],> 50 µg/mL
same,IC80 neutralization (TZM.bl),[19],> 50 µg/mL
same,IC50 neutralization (TZM.bl),[20],> 50 µg/mL
same,IC80 neutralization (TZM.bl),[20],> 50 µg/mL
same,IC50 neutralization (TZM.bl),[21],0.083 µg/mL
same,IC80 neutralization (TZM.bl),[21],0.475 µg/mL
same,IC50 neutralization (TZM.bl),[22],> 50 µg/mL
same,IC80 neutralization (TZM.bl),[22],> 50 µg/mL
same,IC50 neutralization (TZM.bl),[23],> 50 µg/mL
same,IC80 neutralization (TZM.bl),[23],> 50 µg/mL
same,IC50 neutralization (TZM.bl),[24],> 50 µg/mL
same,IC80 neutralization (TZM.bl),[24],> 50 µg/mL
same,IC50 neutralization (TZM.bl),[25],> 50 µg/mL
same,IC80 neutralization (TZM.bl),[25],> 50 µg/mL
same,IC50 neutralization (TZM.bl),[26],> 50 µg/mL
same,IC80 neutralization (TZM.bl),[26],> 50 µg/mL
same,IC50 neutralization (TZM.bl),[27],> 50 µg/mL
same,IC80 neutralization (TZM.bl),[27],> 50 µg/mL
same,IC50 neutralization (TZM.bl),[28],0.112 µg/mL
same,IC80 neutralization (TZM.bl),[28],0.425 µg/mL
same,IC50 neutralization (TZM.bl),[29],> 50 µg/mL
same,IC80 neutralization (TZM.bl),[29],> 50 µg/mL
same,IC50 neutralization (TZM.bl),[30],0.009 µg/mL
same,IC80 neutralization (TZM.bl),[30],0.041 µg/mL
same,IC50 neutralization (TZM.bl),[31],0.016 µg/mL
same,IC80 neutralization (TZM.bl),[31],0.064 µg/mL
same,IC50 neutralization (TZM.bl),[32],> 50 µg/mL
same,IC80 neutralization (TZM.bl),[32],> 50 µg/mL
same,IC50 neutralization (TZM.bl),[33],> 50 µg/mL
same,IC80 neutralization (TZM.bl),[33],> 50 µg/mL
same,IC50 neutralization (TZM.bl),[34],0.005 µg/mL
same,IC80 neutralization (TZM.bl),[34],0.017 µg/mL
same,IC50 neutralization (TZM.bl),[35],0.037 µg/mL
same,IC80 neutralization (TZM.bl),[35],0.138 µg/mL
same,IC50 neutralization (TZM.bl),[36],> 50 µg/mL
same,IC80 neutralization (TZM.bl),[36],> 50 µg/mL
